Reference: the DeepSol protein solubility set

Experiment: soluble on expression in E. coli; label from the status in PepcDB or PDB records

Sequence	soluble on expression in E. coli
MGGRSAQPRRFSFACRILHPAVAHDAMAGSRYILRAPASIIRLAQHGWLHCCLHFFLFPAMNDVCFVAKGSALYLFTVEIIVFGSPSLRHNVLSFFYFALPWFKRQCRLKVNFNRLKEIRGIAQVVRKAFFISKTLPCI	soluble
MGGSHHHHHHGMASALAAVDIRDNLLGISWVDSSWIPILNSGSVLDYFSERSNPFYDRTCNNEVVKMQRLTLEHLNQMVGIEYILLHAQEPILFIIRKQQRQSPAQVIPLADYYIIAGVIYQAPDLGSVINSRVLTAVHGIQSAFDEAMSYCRYHPSKGYWWHFKDHEEQDKVRPKAKRKEEPSSIFQRQRVDALLLDLRQKFPPKFVQLKPGEKPVPVDQTKKEAEPIPETVKPEEKETTKNVQQTVSAKGPPEKRMRLQ	not soluble
MGGSHHHHHHGMASALELLSPQSPFRVDRGEHLPFLVKGARYTLVPAGQEGGGQTWRPLPGTTSPEDSSHLHRGQKKGAALGMAVYPYNCQAHAP	not soluble
MGHHHHHHGGHMSLETKHSNRARSRKGALRGAVLAGALMALVGCQTSPAATTSSNTGGTNMQLQLTQEWDKTFPLSAKVEHRKVTFANRYGITLAADLYLPKNRGGDRLPAIVIGGPFGAVKEQSSGLYAQTMAERGFVTLAFDPSYTGESGGQPRNVASPDINTEDFSAAVDFISLLPEVNRERIGVIGICGWGGMALNAVAVDKRVKAVVTSTMYDMTRVMSKGYNDSVTLEQRTRTLEQLGQQRWKDAESGTPAYQPPYNELKGGEAQFLVDYHDYYMTPRGYHPRAVNSGNAWTMTTPLSFMNMPILTYIKEISPRPILLIHGERAHSRYFSETAYAAAAEPKELLIVPGASHVDLYDRLDRIPFDRIAGFFDEHLEGGS	soluble
MGHHHHHHGGHMSLPNFFTPEFGPLRGVRVITTGSIIAGPTAGTILADLGAEVIHVERPKVGDTLRVVPPYFEADGKRIGGEFVCVTRNKLSVALDIKSEEGRKIFYELLKHADIFIENLVWLEERYGITDKDMLEANPRLVIVHVSGFGRSEFGGEDEKCGRGSYDIISQAYSGWCKLAAPPGMEVHRLPLYIGDYVTALFGVIGALSAYVYAKETGRGQVVDVAQFEAIARVIEMYYTMYHNLGINREGEGLRVFNTQPYGLYRVKDGWIAIGAIGPGLYQRFIQALAKATGINPADYPYEECAASPEAVNSEKGRELDRIFNEYLMSHTKEEVEKLFNAFRVPCSRVSTPEDVVRDRHWIERGDIIEVLDETTGRLVKQVGIVPKFSETPGRIWRGPPKLGSDTKKVLKGLLNLSDEQIDELKAKGVVDFEGGS	soluble
MGHHHHHHGGHMSLTVPDFQAFMRPMLEQISSGEPQKIAELYRRLAEFFALTPQDTEELLPSGKQAKYHNRILWAKFHLDRAGVLTTPSRGVVQITPLGREFLSRYPEHIGMRELQTIPAYAEFTRRSRSPAQSPAPAAPPQAECSASVPPAEQIDALYAELTANLAEELLAQVKELSPAQFERLVVEVLVAMGYGGSVRDAGQALGRSGDNGIDGLIKQDPLGLDRIYLQAKRWKNTVHSPEIRTFSGSLTYHKATKGVFITTSGFSDGAKATAGQIGNIILLDGETLAHLMIEYGVGVLTRETYQIRRLDADYFEELEGGS	soluble
MGHHHHHHSHDGSLVHISISPYPAILHEYVSSSKWEDAVRLCRFVKEQTMWACLAAMAVANRDMTTAEIAYAAIGEIDKVQYINSIKNLPSKESKMAHILLFSGNIQEAEIVLLQAGLVYQAIQININLYNWERALELAVKYKTHVDTVLAYRQKFLETFGKQETNKRYLHYAEGLQIDWEKIKAKIEMEITKEREQSSSSQSSKSIGLKP	not soluble
MGHHHHHHSHFLSSSTYPEIHGFLHAKEQGKKSWKKIYFFLRRSGLYFSTKGTSKEPRHLQFFSEFGNSDIYVSLAGKKKHGAPTNYGFCFKPNKAGGPRDLKMLCAEEEQSRTCWVTAIRLLKYGMQLYQNYMHPYQGRSGCSSQSI	not soluble
MGHHHHHHSHGGCRELRSTKYISDGQCTSISPLKELVCAGECLLLPVLPNWIGGGYGTKYWSRRSSQEWRCVNDKTRTQRIQLQCQDGSTRTYKITVVTACKCKRYTRQHNESSHNFESMSPAKPVQHHRERKRASKSSKHSMS	not soluble
MGHHHHHHSHLEGPDCCFKSTVAAKLSKELKYPIIKGSSFELAKSGNEKLFEHFNKLADEDNVIIDRFVYSNLVYAKKFKDYSILTERQLRFIEDKIKAKAKVVYLHADPSVIKKRLRVRGDEYIEGKDIDSILELYREVMSNAGLHTYSWDTGQWSSDEIAKDI	not soluble
